The series deals with the molecule itself. In words: FRET or BRET.

B1: Cy5-labelled metallated Zur (Zur^Cy5, Cy5 at C113) (natural protein, E. coli)
chain: MEKTTTQELLAQAEKISAQRNVRLTPQRLEVLRLMSLQDGAISAYDLLDLLREAEPQAKPPTVYRALDFLLEQGFVHKVESTNSYVLCHLFDQPTHTSAMFICDRCGAVKEECAEGVEDIMHTLAAKMGFALRHNVIEAHGLCAACVEVEASRHPEQSQHDHSVQVKKKPR
modifications: Cy5 (maleimide chemistry) at C113 of one monomer of the dimer
On to B1, for which the binding result was “binds”.

The record behind these values is publication doi:10.1101/2023.12.05.570191 (bioRxiv, 2023).
